{"source": "paper PMC6536502", "about": "“Structural insights into DNA recognition by AimR of the arbitrium communication system in the SPbeta phage” (Cell Discovery, 2019)", "binders": {"B1": {"name": "31 bp aimX-upstream palindromic DNA (dsDNA)", "DNA 1": "ACTTAAATATTAGGTTTTAATAACATCTAGT", "DNA 2": "ACTAGATGTTATTAAAACCTAATATTTAAGT"}}, "key": {"[1]": {"target": "T1, AimR T44D (Bacillus phage SPbeta, UniProt O64094 1-386, T44D)", "T1 sequence": "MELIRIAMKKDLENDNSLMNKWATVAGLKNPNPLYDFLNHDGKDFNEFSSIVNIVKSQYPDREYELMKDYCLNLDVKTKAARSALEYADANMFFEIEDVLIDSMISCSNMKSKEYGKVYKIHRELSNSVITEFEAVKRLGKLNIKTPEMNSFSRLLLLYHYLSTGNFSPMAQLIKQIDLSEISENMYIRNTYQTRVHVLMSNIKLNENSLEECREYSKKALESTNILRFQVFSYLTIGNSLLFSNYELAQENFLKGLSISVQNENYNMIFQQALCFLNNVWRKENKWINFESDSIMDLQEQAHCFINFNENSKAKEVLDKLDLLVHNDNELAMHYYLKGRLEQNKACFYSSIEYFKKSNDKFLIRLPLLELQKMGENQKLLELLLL", "assay": "EMSA; 5 mM Mg2+; EMSA: 25 mM Tris-HCl pH 8.0, 150 mM NaCl, 5 mM MgCl2, 5 mM DTT, 0.1 mg/ml BSA, 10% glycerol, 50 ug/ml salmon sperm DNA, 4 C, 15 min; smFRET: 20 mM phosphate pH", "details": "protein: recombinant; tags: 6xHis removed by drICE; chain copies: 2"}, "[2]": {"target": "T2, AimR T78D (Bacillus phage SPbeta, UniProt O64094 1-386, T78D)", "T2 sequence": "T1 sequence with D44T, T78D", "assay": "EMSA; EMSA: 25 mM Tris-HCl pH 8.0, 150 mM NaCl, 5 mM MgCl2, 5 mM DTT, 0.1 mg/ml BSA, 10% glycerol, 50 ug/ml salmon sperm DNA, 4 C, 15 min; smFRET: 20 mM phosphate pH", "details": "protein: recombinant; tags: 6xHis removed by drICE; chain copies: 2"}, "[3]": {"target": "T3, AimR N46D (Bacillus phage SPbeta, UniProt O64094 1-386, N46D)", "T3 sequence": "T1 sequence with D44T, N46D", "assay": "EMSA; EMSA: 25 mM Tris-HCl pH 8.0, 150 mM NaCl, 5 mM MgCl2, 5 mM DTT, 0.1 mg/ml BSA, 10% glycerol, 50 ug/ml salmon sperm DNA, 4 C, 15 min; smFRET: 20 mM phosphate pH", "details": "protein: recombinant; tags: 6xHis removed by drICE; chain copies: 2"}, "[4]": {"target": "T4, AimR (Bacillus phage SPbeta, UniProt O64094 1-386)", "T4 sequence": "T1 sequence with D44T", "assay": "EMSA; 5 mM Mg2+; EMSA: 25 mM Tris-HCl pH 8.0, 150 mM NaCl, 5 mM MgCl2, 5 mM DTT, 0.1 mg/ml BSA, 10% glycerol, 50 ug/ml salmon sperm DNA, 4 C, 15 min; smFRET: 20 mM phosphate pH", "details": "protein: recombinant; tags: C-terminal 8xHis; chain copies: 2"}, "[5]": {"target": "T5, AimR N32A (Bacillus phage SPbeta, UniProt O64094 1-386, N32A)", "T5 sequence": "T1 sequence with N32A, D44T", "assay": "EMSA; 5 mM Mg2+; EMSA: 25 mM Tris-HCl pH 8.0, 150 mM NaCl, 5 mM MgCl2, 5 mM DTT, 0.1 mg/ml BSA, 10% glycerol, 50 ug/ml salmon sperm DNA, 4 C, 15 min; smFRET: 20 mM phosphate pH", "details": "protein: recombinant; tags: 6xHis removed by drICE; chain copies: 2"}}, "note": "Substitutions are numbered along the chain they refer to.", "data": [{"binder": "B1", "values": [{"measurement": "binding signal", "setting": "[1]", "value": "11 fold lower affinity than WT AimR"}, {"measurement": "binding result", "setting": "[2]", "value": "binds"}, {"measurement": "binding result", "setting": "[3]", "value": "binds"}, {"measurement": "Kd", "setting": "[4]", "value": "0.101 ± 0.0276", "unit": "µM"}, {"measurement": "Kd", "setting": "[5]", "value": "6.82 ± 2.25", "unit": "µM"}]}]}
